Assay results published in patent US7951562B2, “Method for glycosylating hydroxylysine residues in polypeptides or peptides” (Oulun Yliopisto, priority 2000, dated 2011).
Values joined by “and” are separate entries in the source; they are usually repeats but may differ in a detail not shown here. Identical values can stand only once.

Tests used:
Assay type in all cases: biochemical
[1] = test system: galactosylhydroxylysyl residues in calf skin gelatin substrate; assay: GGT (glucosyltransferase) activity of recombinant proteins expressed in Sf9 insect cells; conditions: Sf9 cells, 72 hours after infection
Description: The glucosyltransferase activity can be assayed as described in Myllylä et al. (1975). The method is based on the transfer of radioactively (tritium) labelled glucose from UDP-glucose to galactosylhydroxylysyl residues in calf skin gelatin substrate and on the specific assay of the product of the enzyme reaction after alkaline hydrolysis.
Commercially available baculovirus transfer vector pFastBacI in the BAC-TO-BAC™ expression system (Life technologies, Inc.) was modified to contain human LH1 signal peptide (Hautala et al., 1992) and His6 tag, and BamHI restriction site for insertion of the desired cDNA, nucleotides 289-2455 of LH3 cDNA (SEQ ID NO 6) (Valtavaara et al., 1998). The construct was confirmed by sequencing. The recombinant protein contains His tag at the amino-terminus after signal peptide cleavage. Insect cells were harvested 0-72 hours after infection and homogenized according to the protocol described earlier (Valtavaara et al., 1997).
Human LH1 signal peptide and His6 tag was inserted to the cDNA constructs of LH1 and LH2. The baculovirus transfer vector pFastBacI was modified so that human LH1 signal sequence followed by nine nucleotides of the amino-terminal end was ligated to the His6 tag followed by nucleotides for BamHI restriction site. The human cDNA sequence (LH1 or LH2) (SEQ ID NO 21, 23 and 25) starting from the likely amino-terminal end of the molecule was ligated to the BamHI site of the construct. Two expression constructs were generated for LH2, LH2a and LH2b (SEQ ID NO 23 and 25), both of them covered the nucleotides from 76 to 2267 (Valtavaara et al., 1997). The LH2b construct contained also the alternatively spliced exon sequence (Valtavaara 1999; Yeowell and Walker, 1999) between nucleotides 1500 and 1501 (SEQ ID NO 25). The constructs were confirmed by sequencing. Insect cells were grown and homogenized as described above.
LH activity was assayed by a method based on the hydroxylation-coupled decarboxylation of 2-oxo(1-^14C)glutarate (Kivirikko and Myllylä 1982), synthetic peptide […] was used as a substrate. GGT activity was assayed as described elsewhere (Myllylä et al. 1975). The method is based on the transfer of radioactively (tritium) labelled glucose from UDP-glucose to galactosylhydroxylysyl residues in calf skin gelatin substrate and on the specific assay of the product of the enzyme reaction after alkaline hydrolysis.

[2] = test system: hydroxylysyl residues in a calf skin gelatin substrate; assay: GT (galactosyltransferase) activity of recombinant proteins expressed in E. coli; conditions: E. coli cell supernatant, FIG. 12
Description: The galactosyltransferase activity can be assayed as described in Myllylä et al. (1975). The method is based on the transfer of radioactively (tritium) labelled galactose from UDP-galactose to hydroxylysyl residues in calf skin gelatin substrate and on the specific assay of the product of the enzyme reaction after alkaline hydrolysis.

[3] = test system: synthetic peptide IKGIKGIKG; assay: LH activity of human LH isoforms expressed in E. coli; conditions: E. coli expression system, data not shown
Description: The lysyl hydroxylase activity can be assayed by a method based on the hydroxylation-coupled decarboxylation of 2-oxo(1-^14C)glutarate (Kivirikko and Myllylä 1982), synthetic peptide […] was used as a substrate.
PFastBacI constructs for human LH1, LH2a, LH2b and LH3 were cleaved with BamHI and Hind III restriction enzymes and coding regions were subcloned into same site in E. coli expression vector pQE30 containing (His)6 tag at the amino terminus. Insert for C. elegans LH (corresponding to amino acids 14-730 in cDNA) was generated by PCR and ligated into SacI-PstI site of pOE30 vector. Constructs were transformed into E. coli XL1-Blue strain. Cultures were grown to OD600 of 0.6 at 37° C. Protein expression was induced by adding 1 mM IPTG and incubation was proceed at 30° C. for 5 hours. Cells were harvested and stored at −20° C. For activity measurements cell pellet was suspended to lysis buffer (0.4 M NaCl, 0.5% Nonident and 20 mM Tris-HCl pH 7.8, at 20° C.) and incubated in the presence of lysozyme (50 μg/ml), DNAase (10 μg/ml) and RNAase (10 μg g/ml) at room temperature for 30 minutes. Lysis was completed by sonication. Cell debris was pelleted and supernatant was used in the measurements.

[4] = test system: hydroxylysyl residues in a calf skin gelatin substrate; assay: GT activity of recombinant proteins expressed with baculovirus vector in Sf9 cells; conditions: baculovirus vector in insect cells, not shown
Experimental: Baculovirus transfer vector pFastBacI in the BAC-TO-BAC™ expression system was used to produce LH3 protein in Sf9 cells. The cDNA construct is in Example 1. The recombinant protein contains the His tag at the amino terminus after signal peptide cleavage. The cells were homogenized as described elsewhere (Valtavaara et al. 1997).
GT and GGT activities were measured by a method based on the transfer of radioactively (tritium)-labeled sugar from UDP-sugar to hydroxylysyl or galactosylhydroxylysyl residues in a calf skin gelatin substrate, respectively (Myllylä et al. 1975). The specific detection of the reaction products was performed after alkaline hydrolysis.

[5] = test system: galactosylhydroxylysyl residues in a calf skin gelatin substrate; assay: GGT activity of recombinant proteins expressed in E. coli; conditions: E. coli supernatant, 5 h IPTG induction, stored at −70° C. overnight; listed as LH cDNA

Molecule | GGT activity in cell lysates [1] | generation of GT activity [2] | LH activity [3] | generation of GT activity [4] | GGT enzyme activity [5]
LH2b: recombinant human lysyl hydroxylase isoform 2, alternatively spliced form b (protein, listed as Homo sapiens, His6 tag; CDS (1)..(2277), recombinant human lysyl hydroxylase isoform 2, alternatively spliced form b) MGGCTVKPQLLLLALVLHPWNPCLGADSEKPSSIPTDKLLVITVATKESDGFHRFMQSAKYFNYTVKVLGQGEEWRGGDGINSIGGGQKVRLMKEVMEHYADQDDLVVMFTECFDVIFAGGPEEVLKKFQKANHKVVFAADGILWPDKRLADKYPVVHIGKRYLNSGGFIGYAPYVNRIVQQWNLQDNDDDQLFYTKVYIDPLKREAINITLDHKCKIFQTLNGAVDEVVLKFENGKARAKNTFYETLPVAINGNGPTKILLNYFGNYVPNSWTQDNGCTLCEFDTVDLSAVDVHPNVSIGVFIEQPTPFLPRFLDILLTLDYPKEALKLFIHNKEVYHEKDIKVFFDKAKHEIKTIKIVGPEENLSQAEARNMGMDFCRQDEKCDYYFSVDADVVLTNPRTLKILIEQNRKIIAPLVTRHGKLWSNFWGALSPDGYYARSEDYVDIVQGNRVGVWNVPYMANVYLIKGKTLRSEMNERNYFVRDKLDPDMALCRNAREMTLQREKDSPTPETFQMLSPPKGVFMYISNRHEFGRLLSTANYNTSHYNNDLWQIFENPVDWKEKYINRDYSKIFTENIVEQPCPDVFWFPIFSEKACDELVEEMEHYGKWSGGKHHDSRISGGYENVPTDDIHMKQVDLENVWLDFIREFIAPVTLKVFAGYYTKGFALLNFVVKYSPERQRSLRPHHDASTFTINIALNNVGEDFQGGGCKFLRYNCSIESPRKGWSFMHPGRLTHLHEGLPVKNGTRYIAVSFIDP | none of these recombinant proteins had detectable GGT activity | LH3 was the only one being able to generate GT activity | no LH activity can be found | did not generated GT activity | 
C. elegans LH: protein produced from Caenorhabditis elegans lysyl hydroxylase cDNA (amino acids 14-730) (protein, Caenorhabditis elegans) LLATTITDLPELVVVTVATENTDGLKRLLESAKAFDINIEVLGLGEKWNGGDTRIEQGGGQKIRILSDWIEKYKDASDTMIMFVDAYDVVFNADSTTILRKFFEHYSEKRLLFGAEPFCWPDQSLAPEYPIVEFGKRFLNSGLFMGYGPEMHKILKLKSVEDKDDDQLYYTMIYLDEKLRKELNMDLDSMSKIFQNLNGVIEDVELQFKEDGTPEAYNAAYNTKPLIVHGNGPSKSHLNYLGNYLGNRWNSQLGCRTCGLEVKESEEVPLIALNLFISKPIPFIEEVLQKIAEFDYPKEKIALYIYNNQPFSIKNIQDFLQKHGKSYYTKRVINGVTEIGDREARNEAIEWNKARNVEFAFLMDGDAYFSEPKVIKDLIQYSKTYDVGIIAPMIGQPGKLFTNFWGAIAANGYYARSEDYMAIVKGNRVGYWNVPFITSAVLFNKEKLEAMKDAYSYNKNLDPDMSMCKFARDNGHFLYIDNEKYYGFLIVSDEYAETVTEGKWHPEMWQIFENRELWEARYIHPGYHKIMEPEHVVDQACPDVYDFPLMSERFCEELIEEMEGFGRWSDGSNNDKRLAGGYENVPTRDIHMNQVGFERQWLYFMDTYVRPVQEKTFIGYYHQPVESNMMFVVRYKPEEQPSLRPHHDASTFSIDIALNKKGRDYEGGGVRYIRYNCTVPADEVGYAMMFPGRLTHLHEGLATTKGTRYIMVSFINP |  |  |  |  | 30.700 dpm/mg soluble protein and 21.000 dpm/mg soluble protein
